Measured values as given in article PMC5432123.
Substitutions are numbered along the chain they refer to. Names and notes keep the numbering of the source.

Target: microtubules (tubulin)

B1: UNC-104 (1-371 a.a), truncated version (domain or fragment)
chain: MSSVKVAVRVRPFNQREISNTSKCVLQVNGNTTTINGHSINKENFSFNFDHSYWSFARNDPHFITQKQVYEELGVEMLEHAFEGYNVCIFAYGQTGSGKSYTMMGKANDPDEMGIIPRLCNDLFARIDNNNDKDVQYSVEVSYMEIYCERVKDLLNPNSGGNLRVREHPLLGPYVDDLTKMAVCSYHDICNLMDEGNKARTVAATNMNSTSSRSHAVFTIVLTQKRHCADSNLDTEKHSKISLVDLAGSERANSTGAEGQRLKEGANINKSLTTLGLVISKLAEESTKKKKSNKGVIPYRDSVLTWLLRENLGGNSKTAMLAALSPADINFDETLSTLRYADRAKQIVCQAVVNEDPNAKLIRELNEEVIK
  in vitro MT gliding assay, speed of MT gliding (n = 25): 1.68 mμ/sec

B2: UNC-104 (1-371 a.a) V6I, truncated version (domain or fragment)
chain: B1 chain with V6I
  in vitro MT gliding assay, speed of MT gliding (n = 25): 1.35 μm/sec
